From article PMC7241556

What follows are sequences tested on T1, Rsp (Staphylococcus aureus NCTC8325), ORF:0cc986df (assay: EMSA).
T1 sequence: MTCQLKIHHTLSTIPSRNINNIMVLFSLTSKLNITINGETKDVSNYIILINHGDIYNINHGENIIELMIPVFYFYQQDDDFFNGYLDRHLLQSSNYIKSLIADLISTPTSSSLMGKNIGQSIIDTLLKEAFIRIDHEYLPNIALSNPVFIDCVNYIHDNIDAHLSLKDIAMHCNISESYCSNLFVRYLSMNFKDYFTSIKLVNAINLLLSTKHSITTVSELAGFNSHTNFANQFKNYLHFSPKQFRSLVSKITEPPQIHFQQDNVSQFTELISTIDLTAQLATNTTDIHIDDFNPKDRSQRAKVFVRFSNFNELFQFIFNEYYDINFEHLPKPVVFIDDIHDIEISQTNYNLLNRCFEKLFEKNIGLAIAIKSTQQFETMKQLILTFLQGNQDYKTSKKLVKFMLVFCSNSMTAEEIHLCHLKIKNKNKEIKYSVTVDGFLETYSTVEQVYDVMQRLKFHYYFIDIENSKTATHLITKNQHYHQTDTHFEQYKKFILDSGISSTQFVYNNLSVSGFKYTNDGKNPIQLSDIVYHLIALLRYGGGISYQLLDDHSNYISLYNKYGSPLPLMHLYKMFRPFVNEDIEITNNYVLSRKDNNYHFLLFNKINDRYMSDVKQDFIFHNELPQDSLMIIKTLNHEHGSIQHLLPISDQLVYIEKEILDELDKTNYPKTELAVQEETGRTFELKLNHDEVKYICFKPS

| Sequence | binding |
| --- | --- |
| AACCTTCCATTGAAAACACTCCTTAAAATTTAAATTTGAAGATAACAAAAACGTGCGTAGCTTTTAAATCACCGAAATGTTATTCGCTT (double strand) [psmβ promoter 89 bp] | no binding |
| ACTTAAATACGAATTCAGGCAACTTAATTGTGTTAAATACAGTTTTGAATGCCTAACTGTATTTCTTTTCTCTTTAAAATACAGTTAAGTACATTATAAGATGTTGTGCGGATAAACAAACTAATTGCATCAAATTTATTTTAAAATAACAACAACAAAACGTTAAGCGAATAACATTTCGGTGATTTAAAAGCTACGCACGTTTTTGTTATCTTCAAATTTAAATTTTAAGGAGTGTTTTCAATGGAAGGTT (double strand) [psmβ promoter 253 bp] | binds |
| TAGTGTTGTTGTTACTGAGCTGACTATACGTGTTTTCATTTTCATCATCCTTCTATTTTTTAAAACGATTTGAGGAAACAATAATCAATATGTCAATTTAGAATATTGCA (double strand) [hla promoter 110 bp] | no binding |
| TGATTTTAAAAATTTCCATGTTTTACATTTAAATGATAGATTTCAATATATATTAGGCAGGAGAGAGAAATATGACATGCCAACTTAAA (double strand) [rsp promoter 89 bp] | no binding |
| GCCAGCGATGATACCCATTAAGATTACCTCCTTTGCTTATGAGTTAACTTCATTGTACATAGTTATCTTGTGCGTAATTGATTTT (double strand) [psmα promoter 85 bp] | no binding |
